From the nanobody polyreactivity screen of Harvey et al. (2022)

Test: yeast display, Sf9 membrane polyspecificity reagent, FACS + sequencing; frameworks hold sequencing errors
Summary of the method: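 Nanobodies from a synthetic yeast display library (Saccharomyces cerevisiae BJ5465), induced 36–48 hours with galactose, were stained 1 hour at 4 °C with 10% biotinylated, detergent-solubilized Sf9 membrane reagent, enriched on streptavidin microbeads, then FACS-sorted. Anti-HA (expression) and streptavidin (reagent binding) fluorescence set low and high (top ~1%) gates. Polyreactivity labels come from the gate of origin. Genes were colony-PCR amplified, MiSeq 2 × 250 sequenced and filtered by CDR length.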

Row | Sequence | polyreactivity (PSR sort gate)
1 | QVQLVESGGGLVQAGGSLRLSCAASGSIIFLYAMGWYRQAPGKERELVASISTSGTTITYYADSVKGRFTISRDNAKNTVYLQMNSLKPEDTAVYYCAADTLYYPYDYWGQGTQVTVSS | low polyreactivity
2 | QVQLVESGGGLVQAGGSLRLSCAASGRTFGYYDMGWYRQAPGKGRELVAAITYSGGNTYYADSVKGRFTISRDNAKITVYLQMNSLKPEDTAVYSCAARSSFFPSYSRYDYWGQGTQVTVSS | high polyreactivity
3 | QVQLVESGGGVVQAGGSLRLSCAATGRTFWRYAMGGYIQAPGKERELVASISVSGGTTYYAYSVKGRFTISRDHAKNTVYLQMNSLKPEDTAVYYCAARYGSIYSILYYRFVYWGQGTQVTVSS | high polyreactivity
4 | QVQLVESVGGLDQAGGSLRLSGAASGSIFAHYAMGWYRQAPGKETELVARISWSGGSTYYADSVKGRFTISRDNAKNTVYLQMNSLKPEDTAVYYCARAGRSWDTLYKYYLEHDYWGQGTQETVSS | low polyreactivity
5 | QVQLVESGGGLVPAGGSLRLSCAASGRTLGYNAMGWYRQAPGKERELVAAISRGDSTNYADSVKGRFTISRDNAKNTVYLQMNSLKPEDTAVYYCAAAFPRYRSRAIRVDYWGQGTQVTVSS | high polyreactivity
6 | QVHLVESGGGLVQAGGSLRLSCAASGSTFVRNVMGWYRQAPGKERELVAAITRSGDTTYYADSVKGRFTISRDNAKNTVYLQMNSLKPEDTAVYHCAKRTFVRRGSIYPIDDYWGQGTQVTVSS | low polyreactivity
7 | QVQLVESGGGLVQAGGSLRLSCAASGSIFWRNTMGWYRQAPGKEREFVAAISSNGGGTYYADSVKGRFTISRDKAKNTVYLQTNSLKPEDTAVYYFAATAGGSYKLWYYYWGQGTQVTVSS | high polyreactivity
8 | QVQLVESGGGLVQAGGSLRLSCAASGGIFLVNDMGWYRPAPGKEWELVAAITSGGGTYYADSVKGRFTISRDNAKNTVYLQMNSLKPEDTAVYYCARDTYRQIVSNESYGYWGQGTQVTVSS | low polyreactivity
9 | QVQLVESGGGLVQAGGSLRLSCAASGFNFSPYAMGWYRQAPGKERELVAAISSSGGSTYYADSVKGRFTISRDNAKNTVYLQMNSLKPEDTAVYYCNAAGGYRTSPSDYWGQGTQVTVSS | high polyreactivity
10 | QVQLVESGGGLVQAGGSLRLSCAASGYIFGWYTMGWYRQAPGKERELVAAISGGGRTYYADSVKGRFTISRDNAKNTVYLQMNSLKPEDTAVYYCAARVAQVAYPDGYWGQGTQVTVSS | high polyreactivity
11 | QVQLVESGGGLVQAGGSLRLSCAASGSTFTPNAMGSYRQAPGKERELDASISTTGGNTYYADSVKGRFTISRDNAKNTVYLQMNSLKPEDTAVYYCNAVRSVYLYGYIYGVDYWGQGTQVTVSS | low polyreactivity
12 | QVQLVESGGGLVQARGSLLLSSAASGLIFQTYTMGWYRQAPGKERELVAAITSSGGRTYYADSVKGRFTISRDNAKNSVFLQKNSLKPEDTAVYYCAARRPPSAGMGYWGQGTQVTVSS | high polyreactivity
13 | QVQLVESGGGLVQAGGSLRLSCAASGIILHYYAMGWYRQAPGKQRELVAAISARGGRTYYADSVKGRFTISRDNAKNTVYLQMNSLKPEDTAVYYCAAVTVASPTRMDYWGQGTLVTVSS | high polyreactivity
14 | QVQLVESGGGLVQAGGSLRLSCAASGRIFPVNAMGWYRQAPGKEREFVARISRRGGSTYYADSVKGRFTISRDYEKNTVYLQMNSLKPEDTAVYYCAAVSSRYSYDYWGQGTQVTVSS | high polyreactivity
15 | QVQLVESGGRLVQAGGSLLLSCAASGSTIGYYDMGWYRQAPGKERELVASITKSGGTTRYADSVKGRFTISRDNAKNTVYLQMNSLKPEDTAVYYCNADRSLLYSRKIEYDYWGQGTQVTVRS | low polyreactivity
16 | QVQLVESGGGLVQAGGSLRLSCAASGYTFASNAMGWYRPAPGKERELVAAITRGGSTNYADSVKGRFTISRDNAKNTVYLQMNSLKPEDTAVYYFAAPRYRHTRKGGYWGQGTQVTVSS | low polyreactivity

Row | Sequence | polyreactivity (PSR sort gate)
17 | QVQLVESGGGVVQAGGSLRLSCAASGFIIARNAMGWYRQAPGKERELVAAISASGGRTYYSDSEKGRFTISRDNAKNTVYLQMNSLKPEDTAVYYCAARRDGRSGSYNYWGQGTQVTVSS | high polyreactivity
18 | QVQLVESGGGLVQAGGSLRLSCAASGFTFGNNAMGWYRQAPGKERELVAGISRTGGRTYYADSVKGRFTISRDNAKNTVYLQMNSLKPEDTAVYYCNAVSTLYTGYDYWGQGTQVTVSS | high polyreactivity
19 | QVQRVESGGGLVQAGGSLRLSCAASGFIFYGNTMGWYREAPGKERELVASITSGSSTHYAYSVKGRFTISRDNAKNTVYLQMNSLKPEDTAVYYCIVDDIQFGKYDYWGQGTQVTVSS | low polyreactivity
20 | QVQLVESGGGLVQAGGSLRLSCAASGRIFQRYAMGWYRQAPGKERELVATITRSGGSTYYADSVKGRFTISRDNAKNTVYLQMNSLKPEDTAVFYCSRQWYRYGMGYWGQGTQVSVSS | high polyreactivity
21 | QVQLVESGGGLVQAGGSLRLSCAASGFIFLEYAMGWYRQAPGKERELVAAISARTGSTYYADSVKGRFTISRDNEKNTVYLLMNSLIPEDTAVYYSNKLTWRGEVDYWGHGTQVTVSS | high polyreactivity
22 | QVQLVESGGGLVQAGGSLRLSCAASGFIFQTNVMGWYRQAPGKERELVAAISSGDSTYYADSVKGRFTISRDNAKNTVYLQMNSLKPEDTAVYYCAARRGTGSYSYRYPYGYDYWGQGTQVTVSS | low polyreactivity
23 | QVQLVESGGGLVQAGGSLRLSCAASGRTFSGYAMVWYRQAPGKERELVAAISSGGGSTYYADSVKGRFTISRDNAKNTVYLQMNSLKPEDTAVYYCAADGYPGDYDYWGQGTQVTVSS | low polyreactivity
24 | QVHLVESGGRLVQAGGSIRLSCAASGLTYGSYAMGWYRQAPGKERELVAAIYQSGGSTYYADSVMARFTISRDNANNTVYLQMNRLKPEDTVVYYCNAEAWVTLDWWQWVAYDFWGQGTQVTVSS | high polyreactivity
25 | QVQLVESGGGLVQAGGSLRLSCAASGITFVFNAMGWYRQAPGKERELVASITIGGNTYYADSVKGRFTISRDNAKNTVYLQMNSLKPEDSAVYYCAADIARSVRFYYWGQGTQVTVSS | low polyreactivity
26 | QVQLVESGGGLVQAGGSLRLICAASGSIFNGYVMGWYRQAPGKERELVAAISSGGRTYYADSVKGRFTISRDNAKNTVYLQMNSLKPEDTAVYYCAADIWYFDYDYWGQGTQVTVSS | high polyreactivity
27 | QVQLVESGGGLVQAGGSLRLSCAASGLTFSRYAMGWYRQAPGTERELVAVISRSGGSTYYADSVKGRFTISRDNAKNTVYLQMNSLIPEDTAVYYCAVRAYIKMDYWGQGTQVTVSS | high polyreactivity
28 | QVQLVESGGGLVQAGGSLRLSCAASGSTFSANAMGWYRQAPGKERELVADISTGGSTKYADSVKGRFTISRDNAKNTVYLQMNSLKPEDTAVYYCAARRRWARGSAIRGYWGQGTQVTVSS | high polyreactivity
29 | QVQLVESGGGLVKAGGSLRLSCAASGFIYKFYAMGWYRQAPRKERELVAAINYSGGSTYYADSVKGRFTISRDNAKNTVYLKMNSLKPEDTAVFYCNALYTYGWYSDDYWGQGTQVTVSS | high polyreactivity
30 | QVQLVESGGGLVQAGGSLRLSCAASGSIFGPYAMGWYRQAPGKERELVAAISKGGGSTYYADSVKGRFTISRDNAKNTVYLQMNSLKPDDTAVYYCAADQDKPYDHWGQGTQVTVSS | low polyreactivity
31 | QVQLVESGGGLVQAGGSLRLSCAASGSTLRGYALGWYRQAPGKERELVAAISKNGGSTYYADSVKGRFTISRDNAKNTVYLQMNSLNPEDTAVYYCAAYKAVPHYYYWGQGTQVTVSS | high polyreactivity
32 | QVQLVESGGGLVQAGGSLRLSCAASGSIFRQYAMGWYRQAPGKERELVAAIRSGGSTYYADSVKGRFTISRDNAKNTVYLQMNSLKPEDTAVYYCATRYHWSGYYYWGQGTQVTVSS | high polyreactivity
